In patent US6395548:

Biological target: EPAS1 (HIF-2alpha) (Homo sapiens) (UniProt Q99814)
Test: cell_activity
Details: luciferase reporter, 6 ug plasmid, BAEC; direct binding not shown

Chain of EPAS1 (HIF-2alpha) (Homo sapiens) (Q99814 whole entry): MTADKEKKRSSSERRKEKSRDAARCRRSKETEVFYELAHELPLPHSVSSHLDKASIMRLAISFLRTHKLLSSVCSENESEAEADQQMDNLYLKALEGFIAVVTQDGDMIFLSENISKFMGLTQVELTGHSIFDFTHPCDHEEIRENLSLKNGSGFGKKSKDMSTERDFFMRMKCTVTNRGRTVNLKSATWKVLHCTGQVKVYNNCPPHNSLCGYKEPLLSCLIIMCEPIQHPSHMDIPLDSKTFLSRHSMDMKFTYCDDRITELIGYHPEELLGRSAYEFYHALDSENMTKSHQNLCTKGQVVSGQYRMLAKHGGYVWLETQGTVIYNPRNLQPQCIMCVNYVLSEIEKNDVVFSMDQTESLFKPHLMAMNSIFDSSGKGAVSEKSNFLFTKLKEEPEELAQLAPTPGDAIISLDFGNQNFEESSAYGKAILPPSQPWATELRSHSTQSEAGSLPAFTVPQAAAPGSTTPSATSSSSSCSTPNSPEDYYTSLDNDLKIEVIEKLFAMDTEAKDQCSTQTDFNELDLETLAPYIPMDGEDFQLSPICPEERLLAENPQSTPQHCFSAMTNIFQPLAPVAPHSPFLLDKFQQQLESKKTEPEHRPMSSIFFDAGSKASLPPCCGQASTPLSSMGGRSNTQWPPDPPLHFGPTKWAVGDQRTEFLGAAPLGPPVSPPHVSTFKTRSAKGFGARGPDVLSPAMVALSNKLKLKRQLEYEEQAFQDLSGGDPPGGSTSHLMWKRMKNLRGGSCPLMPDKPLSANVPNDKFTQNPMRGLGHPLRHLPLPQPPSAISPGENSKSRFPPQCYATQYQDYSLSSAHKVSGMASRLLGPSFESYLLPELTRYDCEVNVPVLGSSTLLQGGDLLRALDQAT

KDR/flk-1 promoter -4 kb to +296
activity: 12.9 fold
